What was measured:
Test in all cases: biopanning and SPR screening
human TGFβ1 = target: T1, human TGFβ1 (human, UniProt P01137 279-390)
T1 construct: also called hTGFβ1; hTGFβ-1

human TGFβ2 = target: T2, human TGFβ2 (human, UniProt P61812 303-414)
T2 construct: also called hTGFβ2
T2 sequence (looked up): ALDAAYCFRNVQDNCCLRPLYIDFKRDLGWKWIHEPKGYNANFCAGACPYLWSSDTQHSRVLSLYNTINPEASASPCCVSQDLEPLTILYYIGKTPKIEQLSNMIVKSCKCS

human TGFβ3 = target: T3, human TGFβ3 (human, UniProt P10600 301-412)
T3 construct: also called hTGFβ3
T3 sequence (looked up): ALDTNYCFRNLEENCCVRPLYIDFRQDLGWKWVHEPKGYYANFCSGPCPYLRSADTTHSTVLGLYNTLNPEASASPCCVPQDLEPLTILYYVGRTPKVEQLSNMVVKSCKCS

mouse TGFβ1 = target: T4, mouse TGFβ1 (mouse, UniProt P04202 279-390)
T4 construct: also called mTGFβ1; mTGFβ-1
T4 sequence (P04202 279-390 limits assumed): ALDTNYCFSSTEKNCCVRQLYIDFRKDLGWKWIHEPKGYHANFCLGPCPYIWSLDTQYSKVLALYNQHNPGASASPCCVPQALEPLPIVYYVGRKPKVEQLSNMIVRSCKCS

Measured: binding result

T1 sequence (P01137 279-390 limits assumed): as the sequence (P04202 279-390 limits assumed) above, with S75A counted along it

B1: 4H7 (scFv)
scFv: QVQLVESGGGLVKPGRSLRLSCAASGFTFSSYAMHWVRQAPGKGLEWVAVISYDGSNKYYADSVKGRFTISRDNSKNTLYLQMNSLRAEDTAVYYCAKEMRYCSGGSCYPYAYYMDVWGQGTTVTVSSASTGGGGSGGGGSGGGGSVHSSSELTQDPAVSVALGQTVRITCQGDSLRSYYASWYQQKPGQAPVLVIYGKNNRPSGIPDRFSGSSSGNTASLTITGAQAEDEADYYCNSRDSSGNLVVFGGGTKLTVLGLGG
notes: also called anti-TGFβ-1 scFv 4H7
binds: all assays above
